# Assay results as given in PMC5099872 (Cell Research, 2016).
# B1: Sre1-CTD ΔC-tail variant, residues 628-876, C644S/C672S (domain or fragment, Schizosaccharomyces pombe, UniProt Q9UUD1 628-876, looked up)
# chain: QHSKSSVHAELRELPESTANLIENSHADDVFSPNMVERLWVLAKSTRDSAQMSDSIISSLSDVLVLSPLEVLASWYAADLLDALLMESLSRKVEISEIEEIISLCPKNSSIIRHALLAKLVLFPENTADSLNEVLAAYKNTLDLCSQDKRKQSSVLKINLSKLFTLHSCLSLALQRLGYGDVSKRMYQEIFVPDSDADITPLSFIISWTALNTFAPICTSPKENDVVEKMAMYVRTAIGTLKIQDLKLS
# B2: Sre1-CTD WY mutant, residues 628-896, W702D/Y703D (domain or fragment, Schizosaccharomyces pombe, UniProt Q9UUD1 628-896, looked up)
# chain: QHSKSSVHAELRELPECTANLIENSHADDVFSPNMVERLWVLAKCTRDSAQMSDSIISSLSDVLVLSPLEVLASDDAADLLDALLMESLSRKVEISEIEEIISLCPKNSSIIRHALLAKLVLFPENTADSLNEVLAAYKNTLDLCSQDKRKQSSVLKINLSKLFTLHSCLSLALQRLGYGDVSKRMYQEIFVPDSDADITPLSFIISWTALNTFAPICTSPKENDVVEKMAMYVRTAIGTLKIQDLKLSRKLINSCIDIGSRLQEDLGY
# Legend:
# [1] = biological target: the molecule itself; experiment: crystal structure
# [2] = biological target: the molecule itself; experiment: AUC
Protein,stoichiometry N [1],stoichiometry N [2]
B1,2,
B2,,2
